In paper PMC4428445 (Frontiers in Molecular Biosciences, 2015):

Target: T1, Recombinant wild-type human ubiquitin (human, UniProt P0CG48 1-76)
T1 construct: ubiquitin, human, wild type; C-terminal residue G76; 15N labelled in some NMR experiments; In the rows of assays a1, a4 and a5 it is covalently linked by G76 to K117 of m1 (the conjugate is m3); also called free ubiquitin; mono-ubiquitin; source: recombinant, purified by anion exchange followed by gel filtration
Test: NMR titration; 15N ubiquitin (50 μM) titrated with unlabeled JosK117-onlyW87R or its mono-ubiquitinated form to a maximum of 2 equivalents; 20 mM Na phosphate pH 6.5, 2 mM DTT, 25°C
Conditions: both partners purified

B1: W87R mutant of JosK117-only (domain or fragment, UniProt P54252 1-182, looked up)
chain: MESIFHERQEGSLCAQHCLNNLLQGEYFSPVELSSIAHQLDEEERMRMAEGGVTSEDYRTFLQQPSGNMDDSGFFSIQVISNALRVRGLELILFNSPEYQRLRIDPINERSFICNYKEHWFTVRRLGRQWFNLNSLLTGPELISDTYLALFLAQLQQEGYSIFVVRGDLPDCEADQLLQMIR
notes: ataxin-3, N-terminal Josephin domain, amino acids 1-182; K8, 85, 125, 128 and 166 mutated to arginine, and W87R (site 2); also called JosK117-onlyW87R; JosK117-only W87R; source: recombinant; mutant prepared with QuickChange Site-Directed Mutagenesis kit
binding result: binds
